Measured values: patent US10562947B2, “Compositions and methods for preventing or treating diseases, conditions or processes characterized by aberrant fibroblast proliferation and extracellular matrix deposition” (MOERAE MATRIX, INC., priority 2011, dated 2020)

Columns and labels:
Test in all cases: Kinase Profiling Assay
Type in all cases: biochemical
Conditions in all cases: 100 μM peptide
[1] = target: BRK(h) (Homo sapiens, UniProt Q13882)
Outline: (§1)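 Read-out is kinase activity, measured twice per kinase, across 266 human kinases exposed to MK2 inhibitory peptides in a specificity screen.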

[2] = target: CDK7/cyclinH/MAT1(h) (Homo sapiens, UniProt P50613)
Outline: as §1

[3] = target: CaMKIIδ(h) (Homo sapiens, UniProt Q13557)
Outline: as §1

[4] = target: T1, DMPK(h) (Homo sapiens, UniProt Q09013)
T1 sequence (Q09013 1-629): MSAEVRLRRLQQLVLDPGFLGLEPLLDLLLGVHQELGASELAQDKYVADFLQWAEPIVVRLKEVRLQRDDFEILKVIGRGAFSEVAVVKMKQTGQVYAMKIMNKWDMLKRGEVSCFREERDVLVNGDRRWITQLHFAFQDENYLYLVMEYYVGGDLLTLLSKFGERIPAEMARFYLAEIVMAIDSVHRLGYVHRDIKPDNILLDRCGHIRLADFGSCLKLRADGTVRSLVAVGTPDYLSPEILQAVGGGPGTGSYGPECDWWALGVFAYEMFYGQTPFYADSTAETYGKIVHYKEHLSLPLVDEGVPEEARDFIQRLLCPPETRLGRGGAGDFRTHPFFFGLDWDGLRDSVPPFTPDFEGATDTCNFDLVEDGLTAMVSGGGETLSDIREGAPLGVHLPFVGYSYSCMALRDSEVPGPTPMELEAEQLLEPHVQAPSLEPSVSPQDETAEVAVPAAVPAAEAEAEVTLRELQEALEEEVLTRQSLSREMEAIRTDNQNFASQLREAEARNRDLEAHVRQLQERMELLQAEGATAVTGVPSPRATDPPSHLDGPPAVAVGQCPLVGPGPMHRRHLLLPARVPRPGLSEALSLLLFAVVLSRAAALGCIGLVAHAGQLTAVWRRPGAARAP
Outline: as §1

[5] = target: Met(Y1248C)(h) (Homo sapiens, UniProt P08581, Y1230C)
Outline: as §1

[6] = target: PAK4(h) (Homo sapiens, UniProt O96013)
Outline: as §1

[7] = target: PDGFRα(V561D)(h) (Homo sapiens, UniProt P16234, V561D)
Outline: as §1

[8] = target: PKBβ(h) (Homo sapiens, UniProt P31751)
Outline: as §1

[9] = target: T2, PKG1α(h) (Homo sapiens, UniProt Q13976)
T2 construct: purchased Millipore (IC50 Profiler Express service)
T2 sequence (Q13976 1-671): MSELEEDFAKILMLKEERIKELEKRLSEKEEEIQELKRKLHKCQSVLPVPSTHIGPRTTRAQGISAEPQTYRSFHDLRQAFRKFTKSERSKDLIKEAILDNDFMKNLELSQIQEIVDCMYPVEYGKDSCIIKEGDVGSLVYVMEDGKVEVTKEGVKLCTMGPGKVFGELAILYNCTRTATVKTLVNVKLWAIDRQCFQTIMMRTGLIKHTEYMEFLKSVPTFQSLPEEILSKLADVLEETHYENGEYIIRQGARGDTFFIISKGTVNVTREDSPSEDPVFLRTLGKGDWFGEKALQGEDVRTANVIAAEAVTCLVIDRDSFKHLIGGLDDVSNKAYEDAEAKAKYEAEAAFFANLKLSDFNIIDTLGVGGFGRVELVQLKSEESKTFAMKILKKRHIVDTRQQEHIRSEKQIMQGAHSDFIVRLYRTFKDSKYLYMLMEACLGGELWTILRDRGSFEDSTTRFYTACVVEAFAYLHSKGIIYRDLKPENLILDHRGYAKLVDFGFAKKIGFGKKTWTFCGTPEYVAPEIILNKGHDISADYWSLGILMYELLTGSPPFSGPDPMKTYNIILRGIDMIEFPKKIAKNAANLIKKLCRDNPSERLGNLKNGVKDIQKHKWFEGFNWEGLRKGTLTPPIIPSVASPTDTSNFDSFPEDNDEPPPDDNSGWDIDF
Outline: as §1

[10] = target: T3, TBK1(h) (Homo sapiens, UniProt Q9UHD2)
T3 sequence (Q9UHD2 1-729): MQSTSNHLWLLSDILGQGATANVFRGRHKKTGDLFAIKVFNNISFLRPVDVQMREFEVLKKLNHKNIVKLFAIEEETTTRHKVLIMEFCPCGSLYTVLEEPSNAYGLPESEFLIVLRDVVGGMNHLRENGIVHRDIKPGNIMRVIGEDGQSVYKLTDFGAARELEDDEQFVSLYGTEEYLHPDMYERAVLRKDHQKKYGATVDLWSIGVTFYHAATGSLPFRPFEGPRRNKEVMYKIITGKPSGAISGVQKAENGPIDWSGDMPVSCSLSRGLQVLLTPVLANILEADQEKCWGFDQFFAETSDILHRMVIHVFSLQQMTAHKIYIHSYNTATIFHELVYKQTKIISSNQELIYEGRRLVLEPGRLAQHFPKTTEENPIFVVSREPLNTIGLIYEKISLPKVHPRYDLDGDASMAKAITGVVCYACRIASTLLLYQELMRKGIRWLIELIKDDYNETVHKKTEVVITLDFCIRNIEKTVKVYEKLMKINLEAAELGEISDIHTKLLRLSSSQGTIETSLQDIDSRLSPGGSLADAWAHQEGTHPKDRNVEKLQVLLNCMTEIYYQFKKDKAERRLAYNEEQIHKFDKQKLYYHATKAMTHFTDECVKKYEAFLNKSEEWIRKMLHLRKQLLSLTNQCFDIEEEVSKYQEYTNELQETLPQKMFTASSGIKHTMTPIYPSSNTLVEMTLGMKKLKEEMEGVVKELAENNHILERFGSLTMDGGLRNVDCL
Outline: as §1

[11] = target: Tie2(Y897S)(h) (Homo sapiens, UniProt Q02763, Y897S)
Outline: as §1

CDK7/cyclinH/MAT1(h), sequence (P50613 whole entry): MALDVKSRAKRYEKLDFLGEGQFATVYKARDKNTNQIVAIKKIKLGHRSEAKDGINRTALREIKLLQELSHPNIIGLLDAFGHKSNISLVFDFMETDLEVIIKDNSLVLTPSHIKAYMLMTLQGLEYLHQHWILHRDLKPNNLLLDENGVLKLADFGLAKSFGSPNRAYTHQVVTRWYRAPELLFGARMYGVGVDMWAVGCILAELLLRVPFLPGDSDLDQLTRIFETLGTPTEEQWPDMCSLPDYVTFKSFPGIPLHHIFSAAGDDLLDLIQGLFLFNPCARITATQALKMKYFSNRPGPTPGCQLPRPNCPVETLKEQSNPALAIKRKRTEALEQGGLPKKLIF
CDK7/cyclinH/MAT1(h), sequence (P51946 whole entry partner): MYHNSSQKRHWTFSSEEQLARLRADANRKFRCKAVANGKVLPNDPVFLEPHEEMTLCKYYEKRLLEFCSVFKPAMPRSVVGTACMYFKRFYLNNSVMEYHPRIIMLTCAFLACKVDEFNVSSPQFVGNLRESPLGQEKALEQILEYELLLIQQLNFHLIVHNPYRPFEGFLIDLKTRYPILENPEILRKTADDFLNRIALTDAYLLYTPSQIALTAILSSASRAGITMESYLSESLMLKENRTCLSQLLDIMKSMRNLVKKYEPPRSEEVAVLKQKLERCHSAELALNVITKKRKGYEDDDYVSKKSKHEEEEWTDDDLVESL
CDK7/cyclinH/MAT1(h), sequence (P51948 whole entry partner): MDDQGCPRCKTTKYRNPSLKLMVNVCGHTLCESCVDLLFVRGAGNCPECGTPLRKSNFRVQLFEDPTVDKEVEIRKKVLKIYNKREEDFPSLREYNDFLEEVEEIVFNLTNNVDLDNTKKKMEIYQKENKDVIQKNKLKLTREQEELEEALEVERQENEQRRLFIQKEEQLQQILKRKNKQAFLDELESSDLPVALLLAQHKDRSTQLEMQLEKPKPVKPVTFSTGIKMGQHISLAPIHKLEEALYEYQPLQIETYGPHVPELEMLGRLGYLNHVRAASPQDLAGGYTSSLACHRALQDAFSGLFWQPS
CaMKIIδ(h), sequence (Q13557 whole entry): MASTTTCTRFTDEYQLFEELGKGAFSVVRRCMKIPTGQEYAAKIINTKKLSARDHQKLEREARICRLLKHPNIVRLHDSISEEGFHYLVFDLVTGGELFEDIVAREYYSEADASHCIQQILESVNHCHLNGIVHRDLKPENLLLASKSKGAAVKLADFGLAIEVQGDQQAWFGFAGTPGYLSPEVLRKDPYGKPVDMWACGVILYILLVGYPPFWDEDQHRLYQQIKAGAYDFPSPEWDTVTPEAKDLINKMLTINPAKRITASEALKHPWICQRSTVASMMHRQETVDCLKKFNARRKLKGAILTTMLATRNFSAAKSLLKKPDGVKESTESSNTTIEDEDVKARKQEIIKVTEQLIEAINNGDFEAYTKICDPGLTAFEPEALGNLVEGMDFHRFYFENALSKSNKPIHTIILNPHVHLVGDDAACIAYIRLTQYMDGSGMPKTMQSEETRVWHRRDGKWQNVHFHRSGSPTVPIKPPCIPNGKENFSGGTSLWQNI
PDGFRα(V561D)(h), sequence (P16234 24-1089 V561D): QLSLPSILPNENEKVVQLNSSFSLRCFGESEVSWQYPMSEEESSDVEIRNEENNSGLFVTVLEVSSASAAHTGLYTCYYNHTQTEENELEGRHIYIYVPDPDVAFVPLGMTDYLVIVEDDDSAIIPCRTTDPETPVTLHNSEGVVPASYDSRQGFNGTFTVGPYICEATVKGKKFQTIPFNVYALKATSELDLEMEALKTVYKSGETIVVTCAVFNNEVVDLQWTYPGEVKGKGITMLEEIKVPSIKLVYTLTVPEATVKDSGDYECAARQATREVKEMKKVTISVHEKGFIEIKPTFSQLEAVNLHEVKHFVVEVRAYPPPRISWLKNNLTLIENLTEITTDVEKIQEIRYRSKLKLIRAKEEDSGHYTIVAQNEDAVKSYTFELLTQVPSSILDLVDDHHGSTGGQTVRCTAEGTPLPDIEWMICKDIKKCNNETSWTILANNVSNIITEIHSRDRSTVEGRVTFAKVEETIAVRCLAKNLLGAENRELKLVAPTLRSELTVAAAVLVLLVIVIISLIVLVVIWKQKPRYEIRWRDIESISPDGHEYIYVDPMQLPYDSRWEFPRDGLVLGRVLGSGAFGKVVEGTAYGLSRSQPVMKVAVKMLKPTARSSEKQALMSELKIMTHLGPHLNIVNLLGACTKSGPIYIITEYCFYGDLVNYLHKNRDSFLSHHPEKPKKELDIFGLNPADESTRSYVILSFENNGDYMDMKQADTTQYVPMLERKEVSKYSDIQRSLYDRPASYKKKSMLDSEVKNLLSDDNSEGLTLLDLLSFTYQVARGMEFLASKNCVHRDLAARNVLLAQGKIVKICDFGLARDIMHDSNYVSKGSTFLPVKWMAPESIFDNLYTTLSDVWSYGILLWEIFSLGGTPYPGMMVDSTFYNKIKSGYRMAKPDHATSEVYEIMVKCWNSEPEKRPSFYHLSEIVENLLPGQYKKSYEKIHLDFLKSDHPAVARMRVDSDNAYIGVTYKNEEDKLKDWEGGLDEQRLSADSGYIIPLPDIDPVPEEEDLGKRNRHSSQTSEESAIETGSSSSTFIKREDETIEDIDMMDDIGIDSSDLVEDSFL
Tie2(Y897S)(h), sequence (Q02763 23-1124 Y897S): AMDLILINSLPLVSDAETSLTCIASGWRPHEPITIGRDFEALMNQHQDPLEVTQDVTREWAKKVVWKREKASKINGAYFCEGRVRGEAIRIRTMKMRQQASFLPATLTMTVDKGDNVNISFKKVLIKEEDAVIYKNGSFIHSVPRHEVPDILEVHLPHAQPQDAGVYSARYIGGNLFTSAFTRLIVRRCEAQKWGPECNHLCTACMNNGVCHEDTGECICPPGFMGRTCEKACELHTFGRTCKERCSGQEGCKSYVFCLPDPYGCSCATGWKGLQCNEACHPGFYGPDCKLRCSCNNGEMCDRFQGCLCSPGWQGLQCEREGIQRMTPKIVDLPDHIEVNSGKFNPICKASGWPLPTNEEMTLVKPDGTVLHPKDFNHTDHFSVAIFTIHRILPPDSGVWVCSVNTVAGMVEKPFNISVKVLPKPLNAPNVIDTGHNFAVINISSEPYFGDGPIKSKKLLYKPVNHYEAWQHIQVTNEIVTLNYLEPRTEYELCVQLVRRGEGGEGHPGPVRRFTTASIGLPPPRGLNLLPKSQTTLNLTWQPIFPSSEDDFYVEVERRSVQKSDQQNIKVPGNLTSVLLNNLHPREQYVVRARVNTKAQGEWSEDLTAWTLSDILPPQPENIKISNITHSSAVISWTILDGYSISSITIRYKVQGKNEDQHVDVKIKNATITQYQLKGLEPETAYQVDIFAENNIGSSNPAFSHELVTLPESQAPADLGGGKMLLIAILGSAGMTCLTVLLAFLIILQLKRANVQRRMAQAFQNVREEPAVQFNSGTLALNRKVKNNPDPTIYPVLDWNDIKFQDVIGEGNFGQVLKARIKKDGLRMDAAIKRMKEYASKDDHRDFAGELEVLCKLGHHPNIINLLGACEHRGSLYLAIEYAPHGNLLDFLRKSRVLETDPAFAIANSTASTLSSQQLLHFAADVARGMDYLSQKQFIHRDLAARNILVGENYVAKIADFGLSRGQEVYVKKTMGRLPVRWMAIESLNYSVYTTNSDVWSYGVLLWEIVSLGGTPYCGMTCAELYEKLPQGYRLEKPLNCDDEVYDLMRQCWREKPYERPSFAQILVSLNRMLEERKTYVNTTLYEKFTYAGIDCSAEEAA
PAK4(h), sequence (O96013 whole entry): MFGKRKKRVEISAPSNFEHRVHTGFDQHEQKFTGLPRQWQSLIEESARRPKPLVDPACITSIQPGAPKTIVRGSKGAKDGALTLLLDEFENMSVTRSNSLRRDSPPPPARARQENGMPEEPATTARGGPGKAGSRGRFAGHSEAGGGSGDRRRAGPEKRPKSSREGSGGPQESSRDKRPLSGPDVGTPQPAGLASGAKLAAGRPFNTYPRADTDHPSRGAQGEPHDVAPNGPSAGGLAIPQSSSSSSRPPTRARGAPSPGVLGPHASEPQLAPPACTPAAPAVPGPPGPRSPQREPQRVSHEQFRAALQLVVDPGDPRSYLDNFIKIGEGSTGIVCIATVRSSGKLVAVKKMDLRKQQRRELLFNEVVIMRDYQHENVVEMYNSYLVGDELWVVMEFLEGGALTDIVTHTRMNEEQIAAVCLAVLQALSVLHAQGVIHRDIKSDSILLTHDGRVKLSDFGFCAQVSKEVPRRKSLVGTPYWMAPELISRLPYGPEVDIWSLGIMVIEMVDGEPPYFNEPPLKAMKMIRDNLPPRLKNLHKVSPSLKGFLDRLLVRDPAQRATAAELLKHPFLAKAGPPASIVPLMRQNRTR
BRK(h), sequence (Q13882 whole entry): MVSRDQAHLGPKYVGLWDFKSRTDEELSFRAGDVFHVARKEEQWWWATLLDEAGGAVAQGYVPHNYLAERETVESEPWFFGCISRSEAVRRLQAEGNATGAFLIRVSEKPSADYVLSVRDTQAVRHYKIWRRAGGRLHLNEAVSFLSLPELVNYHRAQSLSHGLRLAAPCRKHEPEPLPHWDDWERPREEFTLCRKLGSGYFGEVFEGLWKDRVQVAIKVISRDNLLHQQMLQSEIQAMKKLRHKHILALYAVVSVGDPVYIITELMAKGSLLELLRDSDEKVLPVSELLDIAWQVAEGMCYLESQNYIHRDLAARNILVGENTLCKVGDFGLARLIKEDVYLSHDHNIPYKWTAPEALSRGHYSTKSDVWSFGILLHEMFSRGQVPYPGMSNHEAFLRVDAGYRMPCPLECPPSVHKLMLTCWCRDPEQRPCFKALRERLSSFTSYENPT

Row | Sequence | BRK(h) % activity [1] | CDK7/cyclinH/MAT1(h) % activity [2] | CaMKIIδ(h) % activity [3] | DMPK(h) % activity [4] | Met(Y1248C)(h) % activity [5] | PAK4(h) % activity [6] | PDGFRα(V561D)(h) % activity [7] | PKBβ(h) % activity [8] | PKG1α(h) % activity [9] | TBK1(h) % activity [10] | Tie2(Y897S)(h) % activity [11]
1 | FAKLAARLYRKALARQLGVAA [MMI-0300] | 35% | 65% | 1% | 59% | 84% | 94% | 82% | 84% | 64% | 37% | 83%
2 | HRRIKAWLKKIKALARQLGVAA (Mammalian) [MMI-0500] | 41% | 15% | 1% | 12% | 73% | 86% | 146% | 21% | 25% | 16% | 80%
3 | KAFAKLAARLYRKALARQLGVAA [MMI-0400] | 18% | 47% | 2% | 54% | 36% | 89% | 100% | 98% | 58% | 39% | 87%
4 | YARAAARQARAKALNRQLGVA (Mammalian) [MMI-0200] | 127% | 67% | 2% | 66% | 141% | 98% | – | 250% | 70% | 98% | 85%
